Patent US20250376536A1 (Bristol-Myers Squibb, published 2025)
Each block holds one binder with its values, some of them ahead of it.

Key:
human CD40 protein = target: T1, human CD40 protein (human, UniProt P25942 21-193); assay: SPR
T1 construct: Protein used in SPR
Experimental: (§1) CD40.9H3×FAP.LP62 and an analog of RO7300490 (see SEQ ID NOs: 39-42) binding to human and cynomolgus (cyno) CD40 and FAP was evaluated by surface plasmon resonance (SPR) using human and cyno CD40 and FAP proteins. […] The rates of association and dissociation of CD40.9H3×FAP.LP62 and the analog of RO7300490 to human CD40 and FAP are summarized in Table 2.

human FAP protein = target: T2, human FAP protein (human, UniProt Q12884 26-760); assay: SPR
T2 sequence: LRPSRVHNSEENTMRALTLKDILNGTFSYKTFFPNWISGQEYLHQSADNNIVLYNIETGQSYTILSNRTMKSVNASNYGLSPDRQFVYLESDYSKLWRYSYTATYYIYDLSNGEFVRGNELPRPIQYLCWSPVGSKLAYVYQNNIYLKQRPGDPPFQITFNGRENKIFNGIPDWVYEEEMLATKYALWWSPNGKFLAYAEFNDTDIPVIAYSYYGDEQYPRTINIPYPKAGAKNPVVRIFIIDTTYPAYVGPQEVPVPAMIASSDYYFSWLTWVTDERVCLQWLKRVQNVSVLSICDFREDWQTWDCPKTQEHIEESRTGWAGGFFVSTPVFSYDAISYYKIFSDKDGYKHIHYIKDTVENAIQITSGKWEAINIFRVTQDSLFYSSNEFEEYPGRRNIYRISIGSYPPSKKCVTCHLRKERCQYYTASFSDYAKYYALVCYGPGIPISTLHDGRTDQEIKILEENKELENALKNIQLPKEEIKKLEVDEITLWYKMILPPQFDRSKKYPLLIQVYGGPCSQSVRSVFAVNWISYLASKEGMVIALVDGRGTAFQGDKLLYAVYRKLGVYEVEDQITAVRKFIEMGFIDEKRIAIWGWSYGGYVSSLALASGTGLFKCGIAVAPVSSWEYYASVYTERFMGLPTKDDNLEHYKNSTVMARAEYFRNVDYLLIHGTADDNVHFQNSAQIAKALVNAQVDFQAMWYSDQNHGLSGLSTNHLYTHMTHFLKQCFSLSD
Experimental: as §1

soluble FAP [1] = target: T3, soluble FAP (human, UniProt Q12884 26-760, limits assumed); assay: cell-based or functional assay
T3 sequence: T2 sequence

human FAP on cells = target: T4, human FAP on cells (human, UniProt Q12884 1-760); assay: cell-based or functional assay
T4 sequence: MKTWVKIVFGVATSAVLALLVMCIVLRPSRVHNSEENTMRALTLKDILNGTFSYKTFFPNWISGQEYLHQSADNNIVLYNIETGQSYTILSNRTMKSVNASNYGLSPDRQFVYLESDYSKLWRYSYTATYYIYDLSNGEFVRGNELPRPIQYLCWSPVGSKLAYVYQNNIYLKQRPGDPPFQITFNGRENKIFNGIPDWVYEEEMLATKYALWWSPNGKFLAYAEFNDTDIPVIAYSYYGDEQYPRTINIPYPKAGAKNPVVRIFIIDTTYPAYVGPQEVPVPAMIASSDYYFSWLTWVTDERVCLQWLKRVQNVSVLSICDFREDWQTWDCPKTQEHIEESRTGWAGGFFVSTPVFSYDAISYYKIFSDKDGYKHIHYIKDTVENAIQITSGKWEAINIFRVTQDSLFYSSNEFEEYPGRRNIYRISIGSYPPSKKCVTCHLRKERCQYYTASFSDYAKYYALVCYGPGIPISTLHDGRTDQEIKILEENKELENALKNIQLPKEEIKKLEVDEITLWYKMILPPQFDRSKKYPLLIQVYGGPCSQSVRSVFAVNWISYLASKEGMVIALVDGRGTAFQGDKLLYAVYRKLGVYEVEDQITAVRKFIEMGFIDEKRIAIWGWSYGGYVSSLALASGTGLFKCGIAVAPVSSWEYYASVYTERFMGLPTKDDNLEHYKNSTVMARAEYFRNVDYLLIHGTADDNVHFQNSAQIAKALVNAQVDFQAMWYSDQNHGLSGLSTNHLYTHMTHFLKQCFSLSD

FcγRI (CD64) = target: T5, FcγRI (CD64) (UniProt P12314 16-288, limits assumed); assay: SPR, Biacore S200, antibody captured on Protein A chip, FcγR as analyte
T5 construct: also called FcγR1 (CD64); FcγR1
T5 sequence (P12314 16-288 limits assumed): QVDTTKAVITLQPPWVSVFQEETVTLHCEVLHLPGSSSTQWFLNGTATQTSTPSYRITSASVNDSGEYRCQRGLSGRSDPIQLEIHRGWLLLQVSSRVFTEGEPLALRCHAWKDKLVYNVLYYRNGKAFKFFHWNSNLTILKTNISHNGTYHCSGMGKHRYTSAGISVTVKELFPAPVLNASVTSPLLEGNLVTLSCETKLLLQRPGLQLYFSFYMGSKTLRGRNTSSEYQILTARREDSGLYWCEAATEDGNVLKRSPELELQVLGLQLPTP
Experimental: Binding of CD40.9H3×FAP.LP62 and the analog of RO7300490 to various Fc gamma receptors (FcγR1 (CD64), FcγRIIIA (CD16a), FcγRIIIB (CD16b), FcγRIIA (CD32a), FcγRIIB (CD32b)) was determined in an analyte/capture assay in vitro. Briefly, an SPR assay was performed using a Biacore S200 with a Biacore Series S Protein A chip (Cytiva). All antibodies were prepared at 4.0 μg/ml in 1×HBS-EP+ running buffer (Cytiva) and captured onto flow cells 2, 3, and 4 through a 60 second contact time at 10 μl/min. An analyte series of the FcγRs (BMS In-House Produced) were prepared at 10,000 nM in 1×HBS-EP+ with eight, three-fold dilutions. Kinetic measurements were conducted with a 120 second association followed by a 120 second dissociation at 30 μl/min. Surface regeneration was preformed by 60 second contact time of 50 mM Glycine pH 1.5 solution (Cytiva) at 30 μl/min. Data was processed in Biacore Insight Evaluation Version 5 (Cytiva). Sensorgrams were double referenced and globally fit to a 1:1 Langmuir model were applicable. Where 1:1 model was not sufficient to describe the interaction (fast-on and fast-off rates), steady state equilibrium fitting was used to determine the equilibrium constant.

soluble FAP [2] = target: T3, soluble FAP; assay: cell-based or functional assay; remark: listed apart in the source
mouse FAP on HEK cells = target: T6, mouse FAP on HEK cells (mouse, UniProt P97321 1-761); assay: binding to mouse FAP-positive HEK cells
T6 construct: whole, on cells; also called Mouse FAP-positive HEK cells; mouse FAP-expressing HEK cells
T6 sequence (looked up): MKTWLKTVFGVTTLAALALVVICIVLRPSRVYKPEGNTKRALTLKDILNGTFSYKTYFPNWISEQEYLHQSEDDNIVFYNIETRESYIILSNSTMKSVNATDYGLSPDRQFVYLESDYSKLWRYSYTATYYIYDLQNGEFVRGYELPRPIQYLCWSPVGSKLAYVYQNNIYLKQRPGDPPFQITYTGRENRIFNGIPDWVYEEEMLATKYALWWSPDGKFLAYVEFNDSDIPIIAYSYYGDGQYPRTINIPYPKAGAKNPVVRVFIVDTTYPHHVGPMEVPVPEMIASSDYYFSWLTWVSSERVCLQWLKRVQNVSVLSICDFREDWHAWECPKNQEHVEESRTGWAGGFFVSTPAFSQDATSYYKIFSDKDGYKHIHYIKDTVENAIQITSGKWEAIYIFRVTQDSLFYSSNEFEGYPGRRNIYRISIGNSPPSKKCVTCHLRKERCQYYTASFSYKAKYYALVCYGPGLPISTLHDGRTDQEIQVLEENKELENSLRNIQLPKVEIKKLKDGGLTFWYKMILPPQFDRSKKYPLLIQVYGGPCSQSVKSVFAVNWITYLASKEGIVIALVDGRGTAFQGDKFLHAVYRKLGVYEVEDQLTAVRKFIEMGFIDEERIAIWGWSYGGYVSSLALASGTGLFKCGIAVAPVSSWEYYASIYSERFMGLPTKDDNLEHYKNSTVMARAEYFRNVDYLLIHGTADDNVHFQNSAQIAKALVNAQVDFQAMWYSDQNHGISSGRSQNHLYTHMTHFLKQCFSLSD

mouse CD40 protein = target: T7, mouse CD40 protein (mouse, UniProt P27512 20-193, limits assumed); assay: SPR
T7 sequence (looked up): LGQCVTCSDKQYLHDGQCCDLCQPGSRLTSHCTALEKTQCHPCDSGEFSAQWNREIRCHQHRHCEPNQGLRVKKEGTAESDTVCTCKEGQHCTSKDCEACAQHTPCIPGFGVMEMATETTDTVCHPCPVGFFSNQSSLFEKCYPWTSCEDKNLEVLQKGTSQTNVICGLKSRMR

mouse FAP protein = target: T8, mouse FAP protein (mouse, UniProt P97321 26-761); assay: SPR
T8 sequence (looked up): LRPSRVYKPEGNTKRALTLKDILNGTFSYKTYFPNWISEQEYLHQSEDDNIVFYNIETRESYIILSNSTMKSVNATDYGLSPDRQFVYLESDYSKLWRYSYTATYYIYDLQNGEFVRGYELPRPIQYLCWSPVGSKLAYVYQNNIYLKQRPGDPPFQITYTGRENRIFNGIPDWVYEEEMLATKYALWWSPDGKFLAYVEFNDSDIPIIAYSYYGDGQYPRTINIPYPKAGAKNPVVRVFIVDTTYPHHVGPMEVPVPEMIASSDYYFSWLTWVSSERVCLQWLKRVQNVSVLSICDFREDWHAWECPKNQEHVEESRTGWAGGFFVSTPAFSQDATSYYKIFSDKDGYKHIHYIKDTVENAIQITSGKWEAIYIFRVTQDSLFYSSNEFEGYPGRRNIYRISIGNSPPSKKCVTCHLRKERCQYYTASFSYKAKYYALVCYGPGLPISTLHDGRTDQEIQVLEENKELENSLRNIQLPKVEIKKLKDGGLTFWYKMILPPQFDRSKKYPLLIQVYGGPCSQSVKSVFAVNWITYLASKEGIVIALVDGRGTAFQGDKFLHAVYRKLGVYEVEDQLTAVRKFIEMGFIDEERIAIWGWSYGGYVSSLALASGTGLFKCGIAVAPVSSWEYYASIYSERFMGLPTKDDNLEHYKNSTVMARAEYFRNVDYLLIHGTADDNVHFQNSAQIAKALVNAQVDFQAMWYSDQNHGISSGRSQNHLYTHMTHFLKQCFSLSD

mouse CD40 on cells [3] = target: T9, mouse CD40 on cells (mouse, UniProt P27512 20-289); assay: binding to mouse CD40-positive macrophages
T9 construct: whole, on cells; also called Mouse CD40-positive macrophage; Mouse CD40-positive B cell
T9 sequence (looked up): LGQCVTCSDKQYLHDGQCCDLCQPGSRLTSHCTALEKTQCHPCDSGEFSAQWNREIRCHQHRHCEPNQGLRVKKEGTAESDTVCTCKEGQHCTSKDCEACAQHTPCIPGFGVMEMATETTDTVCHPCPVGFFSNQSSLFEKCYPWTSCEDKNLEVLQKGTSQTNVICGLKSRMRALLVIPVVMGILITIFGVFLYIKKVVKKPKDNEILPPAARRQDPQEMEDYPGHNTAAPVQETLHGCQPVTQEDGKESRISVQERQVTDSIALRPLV

mouse CD40 on cells [4] = target: T9, mouse CD40 on cells; assay: binding to mouse CD40-positive B cells
mouse CD40 on cells [5] = target: T9, mouse CD40 on cells; assay: cell-based or functional assay

T1 sequence (P25942 21-193 limits assumed): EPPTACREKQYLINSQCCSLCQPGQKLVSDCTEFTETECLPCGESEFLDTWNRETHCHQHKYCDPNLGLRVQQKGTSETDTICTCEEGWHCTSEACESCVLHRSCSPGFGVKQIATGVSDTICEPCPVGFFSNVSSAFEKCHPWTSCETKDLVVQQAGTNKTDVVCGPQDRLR

Kd (human CD40 protein): 4.9 nM | koff (human CD40 protein): 0.00555 s⁻¹ | kon (human CD40 protein): 1.13e+06 M⁻¹ s⁻¹ | Kd (human FAP protein): 0.265 nM | koff (human FAP protein): 4.83e-05 s⁻¹ | kon (human FAP protein): 182000 M⁻¹ s⁻¹ | IL12p40 release, human DC + HFF1 co-culture, EC50, soluble FAP 120 ng/mL (soluble FAP [1]): 1.14 nM | IL12p40 release, human DC + HFF1 co-culture, EC50, soluble FAP 480 ng/mL (soluble FAP [1]): 516 nM | IL12p40 release, human DC + HFF1 co-culture, EC50, soluble FAP 0 ng/mL (human FAP on cells): 0.09 nM | Kd (FcγRI (CD64)): 2550 nM | fold reduction in potency of IL12p40 secretion with 120 ng/mL soluble FAP (soluble FAP [2]): 14.2 fold | fold reduction in potency of IL12p40 secretion with 480 ng/mL soluble FAP (soluble FAP [2]): 70.9 fold
B1: analog of RO7300490 (bispecific antibody, human IgG1, kappa, L234A L235A)
heavy 1: not shown
heavy 2: QVQLVQSGAEVKKPGASVKVSCKASGYSFTGYYIHWVRQAPGQSLEWMGRVIPNAGGTSYNQKFKGRVTLTVDKSISTAYMELSRLRSDDTAVYYCAREGIYWWGQGTTVTVSSASTKGPSVFPLAPSSKSTSGGTAALGCLVEDYFPEPVTVSWNSGALTSGVHTFPAVLQSSGLYSLSSVVTVPSSSLGTQTYICNVNHKPSNTKVDEKVEPKSCDKTHTCPPCPAPEAAGGPSVFLFPPKPKDTLMISRTPEVTCVVVDVSHEDPEVKFNWYVDGVEVHNAKTKPREEQYNSTYRVVSVLTVLHQDWLNGKEYKCKVSNKALGAPIEKTISKAKGQPREPQVCTLPPSRDELTKNQVSLSCAVKGFYPSDIAVEWESNGQPENNYKTTPPVLDSDGSFFLVSKLTVDKSRWQQGNVFSCSVMHEALHNHYTQKSLSLSPG
light 1: DIVMTQTPLSLSVTPGQPASISCRSSQSLVHSNGNTFLHWYLQKPGQSPQLLIYTVSNRFSGVPDRFSGSGSGTDFTLKISRVEAEDVGVYFCSQTTHVPWTFGGGTKVEIKRTVAAPSVFIFPPSDRKLKSGTASVVCLLNNFYPREAKVQWKVDNALQSGNSQESVTEQDSKDSTYSLSSTLTLSKADYEKHKVYACEVTHQGLSSPVTKSFNRGEC
light 2: QVQLVQSGAEVKKPGASVKVSCKASGYTLTDYNMDWVRQAPGQGLEWIGDIYPNTGGTIYNQKFKGRVTMTIDTSTSTVYMELSSLRSEDTAVYYCTRFRGIHYAMDYWGQGTTVTVSSASVAAPSVFIFPPSDEQLKSGTASVVCLLNNFYPREAKVQWKVDNALQSGNSQESVTEQDSKDSTYSLSSTLTLSKADYEKHKVYACEVTHQGLSSPVTKSFNRGEC
notes: Human IgG1 Fc with L234A, L235A, P329G; also called RO7300490 analog

EC50 (mouse FAP on HEK cells): 3.17 nM | Kd (mouse CD40 protein): 45.8 nM | Kd (mouse FAP protein): 3.4 nM | EC50 (mouse CD40 on cells [3]): 7.3 nM | EC50 (mouse CD40 on cells [4]): 12.1 nM | CCL22 secretion, murine BMDM + MC38-FAP co-culture, EC50 (mouse CD40 on cells [5]): 1.02 nM | IL12p40 secretion, murine BMDM + MC38-FAP co-culture, EC50 (mouse CD40 on cells [5]): 1.43 nM
B2: mCD40×FAP.LP62 (2+1 anti-mouse CD40×FAP bispecific antibody) (bispecific antibody)
chain: EVQLLESGGGLVQPGGSLRLSCAASGFTFSSRGMSWVRQAPGKCLEWVSFISSSGTYVYYADSVKGRFTISRDNSKNTLYLQMNSLRAEDTAVYYCARDLPRTGVYFGMDVWGQGTTVTVSSGGGGSGGGGSGGGGSGGGGSDIQMTQSPSSLSASVGDRVTITCRASQSIFNYLNWYQQKPGKAPKLLIYGASTLQSGVPSRFSGSGSGTDFTLTISSLQPEDFATYYCQESYSTPYTFGCGTKVEIK
